Data published in article PMC7307210, “Small sequence variations between two mammalian paralogs of the small GTPase SAR1 underlie functional differences in coat protein complex II assembly” (The Journal of Biological Chemistry, 2020).

Target: the molecule itself
Experiment: liposome aggregation assay (nanoparticle tracking); 1 μg SAR1 with 100-nm liposomes and GMP-PNP in HKM buffer, 3 h at 37 °C; particle number and size by NanoSight; self-association on a membrane surface

B1: SAR1A (natural protein)
chain: not shown
notes: human SAR1A, full-length (198 residues), with the N-terminal amphipathic helix; also called Secretion-associated Ras-related GTPase 1 A; source: E. coli, purified as GST fusion (GSH-agarose), eluted by thrombin cleavage
B1: binds.

B2: SAR1B (natural protein)
chain: not shown
notes: human SAR1B, full-length (198 residues), with the N-terminal amphipathic helix; also called Secretion-associated Ras-related GTPase 1 B; source: E. coli, purified as GST fusion (GSH-agarose), eluted by thrombin cleavage
B2: binds.
